# Results reported in publication PMC2700083, “A covalent peptide inhibitor of RGS4 identified in a focused one-bead, one compound library screen” (BMC Pharmacology, 2009).
# B1: Gαo: Alexa Fluor 532-labeled Gα subunit, binding partner of RGS proteins in the FCPIA (protein)
# chain: MGCTLSAEERAALERSKAIEKNLKEDGISAAKDVKLLLLGAGESGKSTIVKQMKIIHEDGFSGEDVKQYKPVVYSNTIQSLAAIVRAMDTLGVEYGDKERKADSKMVCDVVSRMEDTEPFSAELLSAMMRLWGDSGIQECFNRSREYQLNDSAKYYLDSLDRIGAADYQPTEQDILRTRVKTTGIVETHFTFKNLHFRLFDVGGQRSERKKWIHCFEDVTAIIFCVALSGYDQVLHEDETTNRMHESLMLFDSICNNKFFIDTSIILFLNKKDLFGEKIKKSPLTICFPEYPGSNTYEDAAAYIQTQFESKNRSPNKEIYCHMTCATDTNNIQVVFDAVTDIIIANNLRGCGLY
# modifications: Alexa Fluor 532 label (sites not given)
# Legend:
# Assay type in all cases: binding
# [1] = target: T1, RGS4 A95C, -7C (Rattus norvegicus, UniProt P49799, C132A/C148A/C183A/C197A/C204A/C71A); assay: FCPIA, RGS4 A95C in the -7C; conditions: read-out: Gαo affinity
# T1 construct: made in house
# Method: (§1) Figure 5 Dose curves of 5nd on various RGS4 cysteine mutants. Various concentrations of 5nd were tested for disruption of the RGS4-Gαo interaction for C95A (5 nM), or […], C71A (5nM) or C148A (5nM) (B), A95C in the -7C (5nM), or A132C in the -7C (5nM) (C), A71C in the -7C (5nM), or A148C in the -7C (5nM) (D) or the mutant with no cysteines in the domain (20 nM) or the C-terminus (20 nM) (E) in the FCPIA (mean ± S.E.M., n ≥ 3).
# (§2) The previous experiments tested which cysteines are necessary for inhibition by 5nd. In an alternative approach, we added cysteines back to the -7C mutant to determine which might be sufficient for 5nd activity. […] Furthermore, Cys132 is involved in the actions but this is clearly not sufficient to explain them. Thus it is concluded that 5nd is at least partially non-selective in its cysteine modification.
# (§3) Proteins were expressed, purified and labeled as described previously. The mutagenesis was done using the "QuickChange Multi Site-Directed Mutagenesis Kit" from Stratagene according to the manufacturer's protocol. The construct of RGS4 used in these studies is a maltose binding protein (MBP-) fusion protein of the RGS4 sequence from which the amphipathic N-terminal helix has been removed (i.e. MBP-RGS4Δ51N). For simplicity in the text, this will be referred to as RGS4. […]
# [2] = target: T2, RGS4 A132C, -7C (Rattus norvegicus, UniProt P49799, C148A/C183A/C197A/C204A/C71A/C95A); assay: FCPIA, RGS4 A132C in the -7C; conditions: read-out: Gαo affinity
# T2 construct: made in house
# Method: as §1, §2, §3
# [3] = target: T3, RGS4 C95A (Rattus norvegicus, UniProt P49799, C95A); assay: FCPIA, RGS4 cysteine mutant C95A; conditions: read-out: Gαo affinity
# T3 construct: made in house
# T3 sequence (P49799 52-205 C95A limits assumed): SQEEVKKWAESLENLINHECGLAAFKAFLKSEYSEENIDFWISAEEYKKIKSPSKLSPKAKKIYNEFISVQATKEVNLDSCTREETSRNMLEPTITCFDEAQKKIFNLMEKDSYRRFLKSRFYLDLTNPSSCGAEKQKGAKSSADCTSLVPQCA
# Method: as §1
# (§4) Proteins were expressed, purified and labeled as described previously. The mutagenesis was done using the "QuickChange Multi Site-Directed Mutagenesis Kit" from Stratagene according to the manufacturer's protocol. The construct of RGS4 used in these studies is a maltose binding protein (MBP-) fusion protein of the RGS4 sequence from which the amphipathic N-terminal helix has been removed (i.e. MBP-RGS4Δ51N). For simplicity in the text, this will be referred to as RGS4. All other RGS proteins were human sequences and were used as Mpb fusions: RGS7 RGS domain (aa: 305–453), RGS8 full length, RGS16 full length, and RGS19ΔC11 (amino acids 1–209). To cleave RGS4Δ51N from the MBP-His6 construct for MS analysis, MBP-His6-RGS4Δ51N was treated with 15% MBP-His6-TEV protease S219V [11] for 22 hours at 4°C and purified over a Ni-NTA column.
# (§5) FCPIA was performed as previously published.
# [4] = target: T4, RGS4 C148A (Rattus norvegicus, UniProt P49799, C148A); assay: FCPIA, RGS4 cysteine mutant C148A; conditions: read-out: Gαo affinity
# T4 construct: made in house
# Method: as §1, §4, §5
# [5] = target: T5, RGS4 C71A (Rattus norvegicus, UniProt P49799, C71A); assay: FCPIA, RGS4 cysteine mutant C71A; conditions: read-out: Gαo affinity
# T5 construct: made in house
# T5 sequence (P49799 52-205 C71A limits assumed): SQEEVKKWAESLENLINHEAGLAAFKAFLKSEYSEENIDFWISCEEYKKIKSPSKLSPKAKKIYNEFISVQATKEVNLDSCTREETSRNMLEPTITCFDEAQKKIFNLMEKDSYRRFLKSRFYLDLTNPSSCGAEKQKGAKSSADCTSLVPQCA
# Method: as §1, §4, §5
# [6] = target: T6, RGS4 C132A (Rattus norvegicus, UniProt P49799, C132A); assay: FCPIA, RGS4 cysteine mutant C132A; conditions: read-out: Gαo affinity
# T6 construct: made in house
# T6 sequence (P49799 52-205 C132A limits assumed): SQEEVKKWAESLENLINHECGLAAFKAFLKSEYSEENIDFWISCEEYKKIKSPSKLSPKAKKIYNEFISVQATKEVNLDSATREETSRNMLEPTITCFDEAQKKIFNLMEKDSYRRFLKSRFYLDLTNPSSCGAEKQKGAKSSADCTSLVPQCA
# Method: as §1, §4, §5
# [7] = target: RGS4 no Cys in C-terminus; assay: FCPIA, RGS4 mutant with no Cys in C-terminus; conditions: read-out: Gαo affinity
# Method: (§6) Since 5nd forms an irreversible, DTT-sensitive bond with RGS, it was suspected that it binds covalently to a cysteine in the protein through a disulfide bridge. Indeed, removal of all 7 cysteines (termed the -7C mutant) from RGS4 greatly diminished 5nd activity (logIC50 of -3.24 ± 0.14 for -7C vs. -4.36 ± 0.02 for wild type) (Figure 5, Table 2).
# as §1, §3
# [8] = target: T7, RGS4 no Cys in RGS domain (Rattus norvegicus, UniProt P49799, C132A/C148A/C71A/C95A); assay: FCPIA, RGS4 mutant with no Cys in RGS domain; conditions: no Cys in RGS domain; read-out: Gαo affinity
# T7 construct: made in house
# Method: as §6, §1, §3
# [9] = target: T8, RGS4 (Rattus norvegicus, UniProt P49799); assay: FCPIA (flow cytometry protein interaction assay), RGS4-Gαo interaction, wild type RGS4 (MBP-RGS4Δ51N); conditions: wild type RGS4Δ51N, calculated in the FCPIA; read-out: Gαo affinity
# T8 construct: made in house
# T8 sequence (P49799 52-205 limits assumed): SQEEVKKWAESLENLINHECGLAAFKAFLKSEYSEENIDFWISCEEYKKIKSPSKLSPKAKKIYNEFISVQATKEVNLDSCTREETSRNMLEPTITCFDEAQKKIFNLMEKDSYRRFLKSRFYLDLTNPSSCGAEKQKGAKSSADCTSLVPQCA
# [10] = target: T9, RGS4 -7C (Rattus norvegicus, UniProt P49799, C132A/C148A/C183A/C197A/C204A/C71A/C95A); assay: FCPIA, RGS4 -7C mutant (all 7 cysteines removed); conditions: read-out: Gαo affinity
# T9 construct: made in house
# Method: as §6, §1, §3
# [11] = target: T10, RGS4 A148C, -7C (Rattus norvegicus, UniProt P49799, C132A/C183A/C197A/C204A/C71A/C95A); assay: FCPIA, RGS4 A148C in the -7C; conditions: read-out: Gαo affinity
# T10 construct: made in house
# T10 sequence (P49799 52-205 C71A/C95A/C132A/C183A/C197A/C204A): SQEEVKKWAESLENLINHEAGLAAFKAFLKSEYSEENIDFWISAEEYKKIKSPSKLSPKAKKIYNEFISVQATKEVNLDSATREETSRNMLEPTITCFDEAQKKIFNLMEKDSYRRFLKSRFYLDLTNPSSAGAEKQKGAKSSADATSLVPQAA
# Method: as §1, §2, §3
# [12] = target: T11, RGS4 A71C, -7C (Rattus norvegicus, UniProt P49799, C132A/C148A/C183A/C197A/C204A/C95A); assay: FCPIA, RGS4 A71C in the -7C; conditions: read-out: Gαo affinity
# T11 construct: made in house
# Method: as §1, §2, §3
# T11 sequence (P49799 52-205 C95A/C132A/C148A/C183A/C197A/C204A): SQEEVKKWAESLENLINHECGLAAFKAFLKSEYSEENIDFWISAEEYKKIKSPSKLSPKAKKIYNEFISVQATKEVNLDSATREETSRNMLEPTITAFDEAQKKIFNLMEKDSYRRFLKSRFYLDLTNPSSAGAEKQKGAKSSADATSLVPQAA
# T1 sequence (P49799 52-205 C71A/C132A/C148A/C183A/C197A/C204A): as the sequence (P49799 52-205 C95A/C132A/C148A/C183A/C197A/C204A) above, with C20A, A44C counted along it
# T7 sequence (P49799 52-205 C71A/C95A/C132A/C148A limits assumed): as the sequence (P49799 52-205 C95A/C132A/C148A/C183A/C197A/C204A) above, with C20A, A132C, A146C, A153C counted along it
# T2 sequence (P49799 52-205 C71A/C95A/C148A/C183A/C197A/C204A): as the sequence (P49799 52-205 C95A/C132A/C148A/C183A/C197A/C204A) above, with C20A, A81C counted along it
# T9 sequence (P49799 52-205 C71A/C95A/C132A/C148A/C183A/C197A/C204A): as the sequence (P49799 52-205 C95A/C132A/C148A/C183A/C197A/C204A) above, with C20A counted along it
# T4 sequence (P49799 52-205 C148A limits assumed): as the sequence (P49799 52-205 C95A/C132A/C148A/C183A/C197A/C204A) above, with A44C, A81C, A132C, A146C, A153C counted along it
molecule,measurement,setting,value
B1,Kd,[1],12 ± 2 nM
same,Kd,[2],12.5 ± 1 nM
same,Kd,[3],8.17 ± 1.5 nM
same,Kd,[4],6.84 ± 1 nM
same,Kd,[5],12.2 ± 1.8 nM
same,Kd,[6],7.9 ± 3.1 nM
same,Kd,[7],5 ± 0.7 nM
same,Kd,[8],3.9 ± 0.8 nM
same,Kd,[9],11.6 ± 1.4 nM
same,Kd,[10],8.3 ± 1 nM
same,Kd,[11],5.7 ± 0.2 nM
same,Kd,[12],9.2 ± 2 nM
